According to PMC11790763, “A Peptide Motif Covering Splice Site B in Neuroligin-1 Binds to Aβ and Acts as a Neprilysin Inhibitor” (Molecular Neurobiology, 2024):

What was measured:
[1] = biological target: T1, recombinant rat NL1 (Rattus norvegicus, UniProt Q62765); test: Surface plasmon resonance binding to immobilized NL1; conditions: SPR, Biacore 2000, 25 °C, HBS-P pH 7.4 + 3 mM CaCl2; analyte injected over NL1 immobilized on CM4 chip, 20 μl/min; 1:1 Langmuir model; four independent experiments
T1 construct: the extracellular domain of NL1 was immobilized on a sensor chip; purchased R&D systems (Abingdon, UK)
T1 sequence (Q62765 46-697 limits assumed): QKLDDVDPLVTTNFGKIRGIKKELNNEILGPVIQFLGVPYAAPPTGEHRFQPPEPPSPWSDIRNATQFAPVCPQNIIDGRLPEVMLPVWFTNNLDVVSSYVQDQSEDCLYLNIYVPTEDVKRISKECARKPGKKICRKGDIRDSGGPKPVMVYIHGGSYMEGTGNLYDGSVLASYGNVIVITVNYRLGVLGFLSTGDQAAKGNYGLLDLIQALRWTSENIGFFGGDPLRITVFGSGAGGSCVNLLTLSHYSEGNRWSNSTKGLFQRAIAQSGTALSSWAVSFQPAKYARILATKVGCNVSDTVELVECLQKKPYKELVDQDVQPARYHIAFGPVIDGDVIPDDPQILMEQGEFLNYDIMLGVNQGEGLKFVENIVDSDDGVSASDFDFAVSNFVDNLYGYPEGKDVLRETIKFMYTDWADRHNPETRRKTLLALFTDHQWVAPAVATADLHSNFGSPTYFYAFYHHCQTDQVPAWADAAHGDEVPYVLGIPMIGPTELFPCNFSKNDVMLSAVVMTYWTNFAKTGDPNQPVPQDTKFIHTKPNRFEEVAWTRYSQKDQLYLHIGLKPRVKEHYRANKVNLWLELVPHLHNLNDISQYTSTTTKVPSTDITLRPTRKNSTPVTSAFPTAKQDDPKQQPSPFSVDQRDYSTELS
Description: Binding analysis was performed on a Biacore 2000 SPR biosensor (GE Healthcare) at 25 °C using HBS-P (10 mM HEPES, pH 7.4, 150 mM NaCl, 0.005% [v/v] Surfactant P20) supplemented with 3 mM CaCl2 as a running buffer. Approximately 2000 Resonance Units (RU) of NL1 was immobilized on a CM4 sensor chip at a flow rate of 5 μl/min by amine coupling. Binding to serially diluted recombinant NX1β, used as a positive control, was performed as previously described. Aβ1-42 was dissolved in anhydrous DMSO to a stock concentration of 3.21 mM followed by serial dilution in running buffer. Peptide was injected into the chip, and binding experiments were performed at a flow rate of 20 μl/min, followed by regeneration of sensor chip with 10 μl of 15 mM NaOH and 150 mM NaCl. After subtraction of blank control, the binding curves were analyzed based on a nonlinear curve fitting using a 1:1 Langmuir binding model and the software package BIAevaluation 4 (GE Healthcare). The apparent equilibrium constant (KD) was calculated as kd/ka, in which ka and kd are the apparent association and dissociation constants, respectively.

[2] = biological target: Biotinylated amyloid-β peptide 1-40 (Aβ1-40); test: ELISA; competitive ELISA: NL1 (3.125 nM) coated on the plate; biotinylated Aβ1-40 (400 nM; Aβ40-1 as negative control) premixed 30 min with serially diluted NL1 or NL1-derived peptides; 4 h at room temperature; streptavidin-HRP; IC50 interpreted as KD

NX1β: recombinant neurexin-1β, positive control for binding to NL1
Kd [1]: 6.64 nM

Recombinant rat neuroligin-1 (NL1), soluble extracellular domain (from UniProt Q62765 46-697) (domain or fragment)
Kd [2]: 19.9 nM
